From article PMC12280161, “Reconstitution of circadian clock in synthetic cells reveals principles of timekeeping” (Nature Communications, 2025)

T1: KaiC (FLAG-seKaiC-1-519) (Synechococcus elongatus, UniProt Q79PF4 1-519, initially hyperphosphorylated due to its preparation and storage at low temperatures (residues not given))
T1 construct: KaiC of Synechococcus elongatus, residues 1-519; In the model KaiC is assigned as hexamers; not measured here
T1 sequence (looked up): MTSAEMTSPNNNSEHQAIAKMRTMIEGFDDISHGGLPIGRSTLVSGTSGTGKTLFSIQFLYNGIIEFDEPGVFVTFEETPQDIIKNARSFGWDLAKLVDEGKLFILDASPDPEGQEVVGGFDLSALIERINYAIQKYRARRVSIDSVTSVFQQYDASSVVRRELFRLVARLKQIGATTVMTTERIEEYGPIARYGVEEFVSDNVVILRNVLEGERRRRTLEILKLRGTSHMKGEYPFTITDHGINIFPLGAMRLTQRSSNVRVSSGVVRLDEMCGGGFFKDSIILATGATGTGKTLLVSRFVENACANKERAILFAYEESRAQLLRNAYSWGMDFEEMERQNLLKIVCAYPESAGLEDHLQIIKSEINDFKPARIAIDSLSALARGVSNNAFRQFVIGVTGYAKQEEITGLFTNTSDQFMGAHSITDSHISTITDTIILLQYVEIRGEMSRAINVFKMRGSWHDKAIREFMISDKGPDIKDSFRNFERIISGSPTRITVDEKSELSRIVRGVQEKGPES

B1: KaiB-6IAF (seKaiB-1-102-K25C-FLAG labelled with 6-iodoacetamidofluorescein) (natural protein, Synechococcus elongatus, UniProt Q79PF5 1-102, looked up)
chain: MSPRKTYILKLYVAGNTPNSVRALCTLKNILEVEFQGVYALKVIDVLKNPQLAEEDKILATPTLAKVLPLPVRRIIGDLSDREKVLIGLDLLYGELQDSDDF
modifications: 6-(iodoacetamido)fluorescein (6IAF), thiol-reactive fluorophore, on KaiB-K25C
notes: KaiB of Synechococcus elongatus, residues 1-102, with K25C; In the model KaiB is assigned as tetramers; not measured here; also called fluorescent KaiB; fluorescently labeled KaiB
B2: KaiB (seKaiB-1-102-FLAG) (natural protein, Synechococcus elongatus, UniProt Q79PF5 1-102, looked up)
chain: MSPRKTYILKLYVAGNTPNSVRALKTLKNILEVEFQGVYALKVIDVLKNPQLAEEDKILATPTLAKVLPLPVRRIIGDLSDREKVLIGLDLLYGELQDSDDF
notes: KaiB of Synechococcus elongatus, residues 1-102; Present as half of the 50:50 KaiB:KaiB-6IAF mixture; gives no signal of its own; also called unlabelled KaiB

Biological target: T1, KaiC (FLAG-seKaiC-1-519)
Test: other fluorescence titration; fluorescence quenching of KaiB-6IAF: 25 µL of a 50:50 mixture of KaiB:KaiB-6IAF at 7 µM added to 25 µL of serially diluted KaiC in a black clear-bottom 96-well plate; mean intensity followed for 22 h; without KaiA
Details: both partners purified

Binder	binding result
B1	binds
B2	binds
